Measured values from patent publication US20210189342A1, “COMPOSITIONS AND METHODS FOR MODULATING MONOCYTE AND MACROPHAGE INFLAMMATORY PHENOTYPES AND IMMUNOTHERAPY USES THEREOF” (Verseau Therapeutics, Inc., priority 2018, published 2021).

Assays:
FERMT3 = assay: siRNA dose response, FERMT3 mRNA knockdown, bDNA Assay; assay type: cell-based, human; settings: THP-1, 24 hr
Description: Dose response curves for siRNAs were generated in vitro using a variety of cell lines according to Table 4.
Briefly, cells were seeded in 96-well plates and reverse transfected with siRNA, Lipofectamine® 2000 (0.5 uL/well; ThermoFisher), and, in some cases, a reporter plasmid (50 ng/well). The reporter plasmid (psiCHECK™-2, Promega) encoded both firefly luciferase and the gene of interest fused to renilla luciferase; silencing of the gene of interest results in proportional silencing of renilla luciferase but leaves firefly luciferase unaffected as an internal control.
After 24 hr incubation at 37° C., mRNA knockdown was measured using an endpoint assay. For targets without a reporter plasmid, a branched DNA (bDNA) assay was performed according to the manufacturer's instructions (QuantiGene® Singleplex Gene Expression Assay, ThermoFisher) to measure both the target gene and GAPDH (housekeeping gene) mRNA. Data are plotted as siRNA concentration (nM) vs. remaining mRNA (ratio of target gene to GAPDH, normalized to mock siRNA-transfected cells). For targets with a reporter plasmid, a Dual-Glo® Luciferase Assay was performed according to the manufacturer's instructions (Promega) to measure firefly and renilla luciferase expression. Data are plotted as siRNA concentration (nM) vs. remaining mRNA (ratio of renilla to firefly luminescence, normalized to mock siRNA-transfected cells).
For all dose response curves, a 4-parameter logistic model was applied to determine the IC50 of each siRNA sequence (Table 5 and FIG. 2). Data shown in Table 5 and FIG. 2 represent the mean of quadruplicates, +/−standard deviation.

M2 macrophages [1] = assay: M2 macrophage polarization, antibodies added only during the last two days, cytokines; assay type: cell-based, human; settings: 10 ug/mL (77, 78, 81-84 at 1 ug/mL), FIGS. 4D-4G
Description: Briefly, monocytes were isolated from whole blood of fresh donors by Ficoll separation with RosetteSep™ Human Monocyte Enrichment Cocktail (Stemcell Techhnologies, Vancouver Canada) according to the manufacturer's instructions. Isolated monocytes were arrayed in 24-well plates overnight in Iscove's Modified Dubelcos Media ([…]) (ThermoFisher) media containing 10% fetal bovine serum and non-adherent cells were washed off after 24 hours. Monocytes were differentiated into macrophages by culturing for 6 days in IMDM 10% FBS plus 50 ng/ml human M-CSF for M2 macrophages, or 50 ng/ml GM-CSF (Biolegend, San Diego, Calif.) for M1 macrophages. M1 macrophages were activated on day 6 with IFN-gamma and LPS, whereas M2 macrophages were polarized on day 6 with 20 ng/ml IL-10 and activated on day 7 with 100 ng/ml LPS. […] Cells were assessed for expression of M1 and M2 markers as described above and cell free supernatants were collected for analysis. Data are representative of at least 3-4 healthy donors.
Beyond phenotypic surface markers, M1 (such as Type 1) and M2 (such as Type 2) macrophages produce different cytokines and chemokines. For example, M1 macrophages produce more pro-inflammatory cytokines, including but not limited to, GM-CSF, IL-12, and TNF alpha, whereas M2 macrophages produce more pro-tumorigenic and immunosuppressive cytokines, such as VEGF, IL-10, and TGFb. […]

M2 macrophages [2] = assay: macrophage differentiation assay with antibodies, M1 and M2 markers; assay type: cell-based; settings: primary human macrophages under M2 skewing; antibody on day 1, 3 and 7; FIG. 4
Text: Monocytes were differentiated in vitro to M1-like (Type 1) and/or M2-like (Type 2) phenotypes (Ries et a. (2014) Cancer Cell 25:846-859; Vogel et al. (2014) Immunobiol. 219:695-703). In order to differentiate monocytes into M1 versus M2 phenotypes monocytes were isolated from whole blood of healthy donors by Ficoll separation with RosetteSep™ Human Monocyte Enrichment Cocktail (Stemcell Technologies, Vancouver, Canada) according to the manufacturer's instructions. Isolated monocytes were arrayed in 24-well plates overnight in IMDM Media containing 10% fetal bovine serum and non-adherent cells were washed off after 24 hours. […] Expression of M1 and M2 macrophage markers and surface expressed targets was assessed by flow cytometry. […]
Labeled cells were washed twice with FACS buffer and fixed with PBS+2% paraformaldehyde for flow cytometry analysis on an Attune™ flow cytometer (ThermoFisher). Data were analyzed via FlowJo software. Morphology was assessed via microscopy.
Briefly, monocytes were isolated from whole blood of fresh donors by Ficoll separation with RosetteSep™ Human Monocyte Enrichment Cocktail (Stemcell Techhnologies, Vancouver Canada) according to the manufacturer's instructions. […] Cells were assessed for expression of M1 and M2 markers as described above and cell free supernatants were collected for analysis. […]

Molecule	IC50 (FERMT3) [nM]	polarization of M2 macrophages to a more M1-like state, increase in pro-inflammatory cytokines (M2 macrophages [1])	effect on macrophage phenotypic marker sets (classical and novel biomarkers), reversal of skewing towards M2 (M2 macrophages [2])
XD-09709: siRNA targeting FERMT3 (sense 5'-guAGcuAcAGGAugAuGAAdTsdT-3'; antisense 5'-UUcAUcAUCCUGuAGCuACdTsdT-3'; RNA with 2'-O-methyl and phosphorothioate modifications, case key not given here, as printed in the source, key not given here)	0.048		
Ab 8: recombinant human IgG4 (S228P) chimera, kappa light chain; variable regions in Table 6 (antibody, V domains shown, human IgG4 S228P constant regions) VH: QVQLQQSGPGLVKPSQTLSLTCAISGDSVSSNIAAWHWIRLSPSRGLEWLGRTYYRRSKWNYDYALSVKSRININPDTSKNLFSLQLNSVTPEDTAVYYCTRGGGRAHSAWGQGTLVTVSS VL: EIVLTQSPGTLSVSPGERATLSCRASQSVSRSHLAWYQQKPGQAPRLLIFGASSRATGIPDRFSGSGSGTDFTLTISRLEPEDFAVYYCQQYGRPGVTFGQGTKVEIK		dramatically effect polarization of M2 macrophages to a more M1-like state	dose-titratable effect
Ab 18: recombinant human IgG4 (S228P) chimera, lambda light chain; variable regions in Table 6 (antibody, V domains shown, human IgG4 S228P constant regions) VH: EVQLLESGGGLVRPGGSLRLSCAASGFTFSSYAMSWVRQAPGKGLEWVSAISGSGGSTYYADSVKGRFTISRDNSKNTLYLQMNSLRAEDTAVYYCARDKRLTYWGQGTMVTVSS VL: QSVVTQPPSVSAAPGQKVTISCSGSSSNIGNNYVSWYQQLPGTAPKLLIYDNNKRPSGIPDRFSGSKSGTSATLGITGLQTGDEADYYCGTWDSSLSARVFGGGTKVTVL		dramatically effect polarization of M2 macrophages to a more M1-like state	dose-titratable effect
